A short description of this series: soluble on expression in E. coli; label from the status in PepcDB or PDB records.
For the sequence “MGSDKIHHHHHHMTVRTRVTDLLEIEHPILMGGMAWAGTPTLAAAVSEAGGLGIIGSGAMKPDDLRKAISELRQKTDKPFGVNIILVSPWADDLVKVCIEEKVPVVTFGAGNPTKYIRELKENGTKVIPVVASDSLARMVERAGADAVIAEGMESGGHIGEVTTFVLVNKVSRSVNIPVIAAGGIADGRGMAAAFALGAEAVQMGTRFVASVESDVHPVYKEKIVKASIRDTVVTGAKLGHPARVLRTPFARKIQEMEFENPMQAEEMLVGSLRRAVVEGDLERGSFMVGQSAGLIDEIKPVKQIIEDILKEFKETVEKLRGYIEE”, the “soluble on expression in E. coli” value is “soluble”.
Then “MTNNQKLVGRHKRLAFMKVGTEGTYDRITGFTSLIEGKEAKEYARQYIDEATERTDVVGYATGIEYAFDRYTNNAVHEKIANITDDELLGVDAQVEIVSVDVFEEKAGGKYPARKRTYSVVPDTTGDGTDALIYSGNFKAVSEIVKGYCTTTDKWQTCTFVEGEIPAEALEHHHHHH”, with “soluble”.
Then “MDDNNSEFKHLFPIAVEVTEGKTYVWCGCGKSKTQPFCDKENCGDKAVSFIAELTEDVYFCNCKQTKNPPFCDGSHAKILLEVVKKKAKQMNRKGSLKLEHHHHHH”, with “not soluble”; and “GPGSMALRDIVGKQMLRQTVLQPRLKLPAGRVVSIEEGWRLARLVREGEEHASAVAVEAAEGMVAPSSVVLEDDVSKRILLLRHKKRKEGDTKAAVRYAQRSRAVPVVGKVAPEVRDIALNVLRKNPIGRAELRARHERSKAKRATKGSDSTRAKRAGRL”, with “not soluble”; and “MGSDKIHHHHHHMKTTFNLSRFYKACNPSYTLNISNVLDRQYYIDFADVRGCKIVEELQRTIVRISPDEPTCQLFTGHIGCGKSTELQRLKTELELAGFHVVYFESSQDLDMADIDISDILLSVARQVSASLEGINIKLKGGYFTNLFKEVGDFLQSPIELSGQAELSLGIAKITAKTKDSTQMRNQLRQYLEPRTNSILQAINEEILERAVEQLKLRGQKGLVVIVDNLDRVDMRPLASGRSQPEYLFIDRGEQLRRLKCHLVYTIPLTLIFSNEYETLKNRLGGGIAPKVLPMVLVRQRDGSDYEPGMSLVRQLVLARAFPEVSLNERLLLITELFDHSQTLDRICRVSGGHIRNLLGLLYSCLQRQDPPFSRECLEAVIKDYRDDLLLAIDESQWELLFEVVQQQRVKGESDYQSLLRSMYLFEYRDPLGRWFGISPALAETEKVLAWQQKK”, with “not soluble”.
Next, “MSLKIMIVEDDRIQATSLKLKLRQLGLDDVILAENGFAALELCNKVGIDLMFCDIRMPQMDGISLLSQLSLQAPKLGVVILSAVEDTILELTHNMCSLAGFAYVDRLPKPYEVEDLQRVVEGFQKQTEPETSHKPAITLTCDEIEQAFLHDHIFNYYQPQFDFRSGAMVGVEALVRYEHPTHGMLSPAVFLPLIEQCGLHEKLFLTVLEKSVSALASIGADLQLSVNISQRNLQHSICDPILAICERYGFPASKLTLEMTEHEVYNGTPTSLANLARLRMYGVGLSIDDFGTGYASLGQLAQLPFTELKIDRSFVHDLATNYKHQQLTNMCLLLAQSLGLHCVVEGVENEETWQYLRQLGVDTCQGYYAAKPMPIAQLSELYTKNRRQCLGEGHHHHHH”: “soluble”; “PEQDIVYISASSGSTGVPTASPFTQSDFDGWIDYEARQFWSSGMRPSDRYVHSLNFSLFIGGPCVLGAQKLGALTIHAGTIPSDRLLQILRQFQATVIWTTPSYAWYLGETAIKEGYDLRKDLAVRRIFVAGEPGGSIPETRNRIEQLWGASVYDYYGLSDIFGSCAGMCEQKE”: “not soluble”.
For the sequence “MPPKKNVVEEKPALIGRLGTNLKVGILGLPNVGKSTFFNVLTKSEAQAENFPFCTIDPNESRVAVQDDRFDWLVNHYKPASKVPAFLNVTDIAGLVKGASEGQGLGNAFLSHVSACDALFHLCRAFDDDDVTHVEGEVDPVRDLEIISNELFAKDLQFIDGPLDKVEKLFTRANDKTKKIEYDTLVRVKKCLEEKKPVRQELWNEKEIEILNKHLFLTAKPIVYLVNLSEKDYIRKKNKWLPKIKAWIDTNDAGAVLIPFSGAFELKLLDMPEDERQKYLKEQGVTSNLDKIVHTGYKALQLEYFFTSGEDEVKAWTIQVGTPAPKAAGRIHTDFEKGFIMAEVMKVADLIELGDEAKCKAGGKYRQQGKTYIVQDGDVIFFKFNAGAGLQAKKK”, the “soluble on expression in E. coli” value is “not soluble”.
With “MGSDKIHHHHHHVVEQSLSVRNGIRHIVWDWNGTLLDDNHANLAAANHVCEMFGVPPMTLEDWRKIFRRPLVPFYEELLGRPLSDEEWQRLDAAYNSYYQRLLPSCRLADGAVDTLHQWRRAGGTQSLLSMAAHDHLVPVITEFGLVSHFTRVDGRQRTTDADSKAEYLAAHLDAQGIDPATVVLIGDIDDDAHAARMVGAKAVLVATGLMSRERLEATGHPVADSLTEAVQLVHG”, the “soluble on expression in E. coli” value was “not soluble”.
Next, “MTTAHFYCQYCTASLLGKKYVLKDDSPYCVTCYDRVFSNYCEECKKPIESDSKDLCYKDRHWHEGCFKCTKCNHSLVEKPFAAKDERLLCTECYSNECSSKCFHCKRTIMPGSRKMEFKGNYWHETCFVCENCRQPIGTKPLISKESGNYCVPCFEKEFAHYCNFCKKVITSGGITFCDQLWHKECFLCSDCRKDLCEEQFMSRDDYPFCMDCYNHLYANKCVACSKPISGLTGAKFICFQDSQWHSECFNCGKCSVSLVGKGFLTQNKEIFCQKCGSGMDTDI”: “soluble”.
Then “MAHHHHHHMRTPVVGAGVAPLEPAPLEASSAAGEDGGEAGVGDEGTDRERFSKMWMYCLQQMQGHEVGMLMDMMPPDIQELYSDKLSDEYLLDEHDNMDKGVHALRAAQKMVEELTSEQLFHIEEFLAGTDAFNAEANRCHGKAHHPRGDGDNLEEEEEAGGDDDEDLFMHRDEGMGSDEEEWLLEQMIAAGDKTSAAAK”, with “not soluble”; and “VIVAGARTPIGKLMGSLKDFSASELGAIAIKGALEKANVPASLVEYVIMGQVLTAGAGQMPARQAAVAAGIGWDVPALTINKMCLSGIDAIALADQLIRAREFDVVVAGGQESMTKAPHLLMNSRSGYKYGDVTVLDHMAYDGLHDVFTDQPMGALTEQRNDVDMFTRSEQDEYAAASHQKAAAAWKDGVFADEVIPVNIPQRTGDPLQFTEDEGIRANTTAAALAGLKPAFRGDGTITAGSASQISDGAAAVVVMNQEKAQELGLTWLAEIGAHGVVAGPDSTLQSQPANAINKALDREGISVDQLDVVEINEAFAAVALASIRELGLNPQIVNVNGGAIAVGHPLGMSGTRITLHAALQLARRGSGVGVAALCGAGGQGDALILRAG”, with “not soluble”.
Next, “GPGSMTRELHRLYVTEPAPPPSLYILTGAGTKAFCAGGDVIGLTTNNPPGCGREFFYWEYQVDYKASIIPAGQVCLWDGYVLGGGAGLSIGSAYRVASEKACFAMPEVAIGMFPDVGASWFLPRLSVPGLGLYMGLTGHRLRGADLVHLGLATHFVPSAKMGELEQALVSMSDAGDVEAVLDKYTTPTTQLPPCTIAHSISSLASHFDITADLTISSILDACREHAQTDPLAKAAADLMPSFSPTAMTLALELLKRGA”: “not soluble”; “MGSDKIHHHHHHGDIYNGTTMGVTFATGTQSVSFPSTGYEGFDVEVLRAKSSEATTINLSATLVVGDKEQELPASITVPSSVSFAAGEFKTNIHVTVGDITPGQNYKVKISLPEEMVTIDQTSDKVITVYRDYTFSSLGTGTFKSAAMAEEGEDFTTWEVEVQKADQISWYKAMNLYEKGYNIVFKVNEANEVTVESQPAWKHASYGEVFVSGKGALEDGVITVKLSHDVPNVGGFGEFKEILYLPAK”: “not soluble”.
For the sequence “SEGSGEQPGPQPQHPGDHRIRDGDFVVLKREDVFKAVQVQRRKKVTFEKQWFYLDNVIGHSYGTAFEVTSGGSLQPKKKREEPTAETKEAGTDNRNIVDDGKSQKLTQDDIKALKDKGIKGEEIVQQLIENSTTFRDKTEFAQDKYIKKKKKKYEAIITVVKPSTRILSIMYYAREPGKINHMRYDTLAQMLTLGNIRAGNKMIVMETCAGLVLGAMMERMGGFGSIIQLYPGGGPVRAATACFGFPKSFLSGLYEFPLNKVDSLLHGTFSAKMLSSEPKDSALVEESNGTLEEKQASEQENEDSMAEAPESNHPEDQETMETISQDPEHKGPKERGSKKDYIQEKQRRQEEQRKRHLEAAALLSERNADGLIVASRFHPTPLLLSLLDFVAPSRPFVVYCQYKEPLLECYTKLRERGGVINLRLSETWLRNYQVLPDRSHPKLLMSGGGGYLLSGFTVAMDNLKADTSLKSNASTLESHETEEPAAKKRKCPESDS”, the “soluble on expression in E. coli” value is “soluble”.

The values above are taken from the DeepSol protein solubility set.
